Measurements reported in patent US20130196320A1, “METHOD FOR IMPROVING CLEAVAGE OF DNA BY ENDONUCLEASE SENSITIVE TO METHYLATION” (CELLECTIS, priority 2010, published 2013).

Key:
[1] = tested on: XPC4 target locus in 293H cells; assay: Meganuclease-induced mutagenesis at XPC4 target locus by deep sequencing, siRNA targeting DNMT1; format: cell-based, human; settings: for mutagenesis, PCR fragments carrying a mutation: XPC4 meganuclease plasmid
Method: The human 293H cells (ATCC) were plated at a density of 1.2×10^6 cells per 10 cm dish in complete medium (DMEM supplemented with 2 mM L-glutamine, penicillin (100 IU/ml), streptomycin (100 μg/ml), amphotericin B (Fongizone: 0.25 μg/ml, Invitrogen-Life Science) and 10% FBS). The next day, cells were transfected with 5 μg of empty vector pCLS003 (SEQ ID NO: 65) and 1 nM or 5 nM of si_DNMT1 composed of mixture of two siRNA DNMT1—1 ([…], SEQ ID NO: 66) and DNMT1—2 ([…], SEQ ID NO: 67) or with si_AS, a siRNA control with no known human target, using Lipofectamine 2000 as transfection reagent (Invitrogen) according to the manufacturer's protocol. The day after, cells were re-platted at the density of 1.2×10^6 cells per 10 cm. 24 hours after, cells were transfected again with 1 nM or 5 nM of siDNMT1 or si_AS in presence of 3 μg of meganuclease expressing vector (pCLS2510; SEQ ID NO: 68) and 2 μg of empty vector or 5 μg of empty vector (SEQ ID NO: 65), with Lipofectamine 2000 transfection reagent (Invitrogen) according to the manufacturer's protocol.
After genomic DNA extraction, the XPC4 target locus was amplified with specific primers flanked by specific adaptator needed for HTS sequencing on the 454 sequencing system (454 Life Sciences)
5,000 to 10,000 sequences per sample were analyzed.

[2] = target: XPC4.1 DNA target; assay: In vitro binding assay, fluorescence anisotropy of fluorescein-labeled XPC4.1 duplex
Method: FIG. 7: Spectrofluorimetric titration of fluorescein-labeled XPC4.1 by XPC4. 50 nM of XPC4.1 duplex was incubated with increasing concentrations of XPC4 (from […]) in binding buffer (10 mM Tris-HCl, 150 mM NaCl, 10 mM CaCl2, 10 mM DTT, pH8) at 25° C. After 30 minutes incubation, the fluorescence anisotropy of the mixture was recorded with a Pherastar Plus (BMG Labtech) operating in fluorescence polarization end point mode with excitation and emission wavelengths set to 495 and 520 nm respectively. Normalized fluorescence anisotropy is plotted as a function of XPC4 concentration. Apparent dissociation constant were determined by fitting raw data by an hyperbolic function (Ax=(A∞*[Meganuclease])/(Kd+[Meganuclease]) with Ax, the fluorescence anisotropy value obtained at a given meganuclease concentration, A∞ the fluorescence anisotropy value obtained at saturating concentration of meganuclease and Kd the dissociation constant of the equilibrium studied).
Fluorescein labeled C1234 oligonucleotides were synthesized and HPLC-purified by Eurogentec. […] C 1234 duplex and fluorescein final concentrations were assessed by spectrophotometry using their respective extinction coefficients ε260nm=62900 M^−1 cm^−1 and ε495nm=83000 M^−1 cm^−1. […]

B1: XPC4: engineered meganuclease (SEQ ID NO: 2) designed to cleave xeroderma pigmentosum group C gene (XPC) (protein)
chain: MANTKYNEEFLLYLAGFVDGDGSIIAQIKPNQSHKFKHALQLTFKVTQKTQRRWFLDKLVDEIGVGYVQDSGSVSNYILSEIKPLHNFLTQLQPFLELKQKQANLALKIIEQLPSAKESPDKFLEVCTWVDQVAALNDSKTRKTTSETVRAVLDSLSEKKKSSPAAGGSDKYNQALSKYNQALSKYNQALSGGGGSNKKFLLYLAGFVDSDGSIIAQIKPNQSHKFKHQLSLAFQVTQKTQRRWFLDKLVDRIGVGYVRDRGSVSDYILSKIKPLHNFLTQLQPFLKLKQKQANLVLKIIEQLPSAKESPDKFLEVCTWVDQVAALNDSKTRKTTSETVRAVLDSLSEKKKSSP
- mutagenesis, PCR fragments carrying a mutation ([1]; Si_AS 1 nM (control siRNA)): 0.3%
- mutagenesis, PCR fragments carrying a mutation ([1]; Si_AS 5 nM (control siRNA)): 0.2%
- mutagenesis, PCR fragments carrying a mutation ([1]; Si_DNMT1 1 nM): 4.8%
- mutagenesis, PCR fragments carrying a mutation ([1]; Si_DNMT1 5 nM): 7.6%
- PCR fragments carrying a mutation ([1]; XPC4 meganuclease, non relevant siRNA (si_AS)): 0.2-0.3%
- mutations ([1]; XPC4 meganuclease, samples treated with si_DNMT1): up to 7%
- Kd ([2]; XPC4.1_Me −11a/−10b & +10a/+11b (fully methylated)): 127 ± 22 nM
- Kd ([2]; unmethylated XPC4.1): 108 ± 21 nM
